What was measured:
FOLR1 CD3 TCB P035.093 [1] = biological target: T1, FOLR1 CD3 TCB P035.093; experiment: SPR, Biacore T200, 37 °C; FOLR1 CD3 TCB P035.093 captured on FOLR1-Fc (C1 chip), anti-idiotypic antibody as analyte; n=5; Stdev 198 s
T1 construct: Classical 2+1 TCB, knob-into-hole, PGLALA; the common light chain pairs with each of the Fabs; also called FOLR1 TCB CD3: P035.093
Experimental: (§1) Briefly, FOLR1-Fc was immobilized on a series s sensor chip C1 using standard amine coupling chemistry according to the manufacturer's instructions. […] The first flow cell was kept as mock surface. […] Dissociation was monitored for 300 s, the flow rate was set to 30 μl/min. The surface was regenerated by injecting 10 mM Glycine pH 2.0 for 60 s, followed by injecting 5 mM NaOH for 60 s at a flow rate of 5 μl/min. Bulk refractive index differences were corrected by subtracting the response obtained from flow cell one (mock surface) as well as by substracting buffer injections (double referencing). The derived curves were fitted to a 1:1 Langmuir binding model using the BIAevaluation software (GE Healthcare). […] All experiments were performed at 37° C. using HBS-N (10 mM HEPES, 150 mM NaCl pH 7.4, 0.05% Surfactant P-20).

[2] = biological target: T2, biotinylated anti-human CD3 IgG (anti-CD3 P035.093) (biotinylated (site not stated)); experiment: SPR; biotinylated anti-CD3 P035.093 IgG on CAP chip, anti-idiotypic IgG at 1 µg/ml; response normalised to anti-human IgG surface and to the unstressed sample; after 14 d at 40 °C pH 6.0
T2 construct: IgG format of this reagent is not described further; immobilised on a CAP chip; also called CD3 IgG (P035.093)
Experimental: (§2) Flow cell 1 was kept as mock surface. […] Dissociation was monitored for 30 s, the flow rate was set to 5 μl/min. The CAP chip was regenerated by injecting a mix of NaOH and Guadinium-hydrochloride for 120 s, provided in the biotin capture kit. Bulk refractive index differences were corrected by subtracting the response obtained from flow cell 1 (mock surface).

FOLR1 CD3 TCB P035.093 [3] = biological target: T1, FOLR1 CD3 TCB P035.093; experiment: SPR, Biacore T200, 37 °C; FOLR1 CD3 TCB P035.093 captured on FOLR1-Fc (C1 chip), anti-idiotypic antibody 1.2-100 nM as analyte; 1:1 Langmuir fit; n=5; Stdev 0.5 nM
Experimental: as §1

[4] = biological target: T2, biotinylated anti-human CD3 IgG …; experiment: SPR; biotinylated anti-CD3 P035.093 IgG on CAP chip, anti-idiotypic IgG at 1 µg/ml; response normalised to anti-human IgG surface and to the unstressed sample; after 14 d at 37 °C pH 7.4
Experimental: Therefore, they were analyzed for thermal stability and remaining target binding after 14 d stress conditions (40° C. at pH6.0 or 37° C. at pH7.4).
as §2

FOLR1 CD3 TCB P035.093 [5] = biological target: T1, FOLR1 CD3 TCB P035.093; experiment: SPR, Biacore T200, 37 °C; FOLR1 CD3 TCB P035.093 captured on FOLR1-Fc (C1 chip), anti-idiotypic antibody as analyte; n=5; Stdev 66 s
Experimental: as §1

FOLR1 CD3 TCB P035.093 [6] = biological target: T1, FOLR1 CD3 TCB P035.093; experiment: SPR, Biacore T200, 37 °C; FOLR1 CD3 TCB P035.093 captured on FOLR1-Fc (C1 chip), anti-idiotypic antibody 1.2-100 nM as analyte; 1:1 Langmuir fit; n=5; Stdev 0.6 nM
Experimental: as §1

FOLR1 CD3 TCB P035.093 [7] = biological target: T1, FOLR1 CD3 TCB P035.093; experiment: SPR, Biacore T200, 37 °C; FOLR1 CD3 TCB P035.093 captured on FOLR1-Fc (C1 chip), anti-idiotypic antibody 1.2-100 nM as analyte; 1:1 Langmuir fit; n=5; Stdev 1.0 nM
Experimental: as §1

FOLR1 CD3 TCB P035.093 [8] = biological target: T1, FOLR1 CD3 TCB P035.093; experiment: SPR, Biacore T200, 37 °C; FOLR1 CD3 TCB P035.093 captured on FOLR1-Fc (C1 chip), anti-idiotypic antibody as analyte; n=5; Stdev 156 s
Experimental: as §1

FOLR1 CD3 TCB P035.093 [9] = biological target: T1, FOLR1 CD3 TCB P035.093; experiment: SPR, Biacore T200, 37 °C; FOLR1 CD3 TCB P035.093 captured on FOLR1-Fc (C1 chip), anti-idiotypic antibody as analyte; n=5; Stdev 222 s
Experimental: as §1

[10] = biological target: T3, Human CD3ε stalk-Fc(knob)-Avi/CD3δ stalk-Fc(hole) (human); experiment: SPR, biotinylated human CD3ε/δ on SA chip, TCB at 2 µg/ml; response normalised to anti-huIgG capture and referenced to the unstressed sample; after 2 weeks at pH 7.4/37 °C
T3 construct: Heterodimeric Fc fusion; also called human CD3ε/δ; Human CD3 epsilon stalk-Fc(knob)-Avi
Experimental: (§3) In order to assess the effect of the deamidation site removal and its effect on the stability of the antibodies, the optimized anti-CD3 antibodies (in TCB format) were incubated for 14 days at 37° C., pH 7.4 and at 40° C., pH 6 and further analyzed by SPR for their binding capability to human CD3ε/δ. Samples stored at −80° C. pH 6 were used as reference. The reference samples and the samples stressed at 40° C. were in 20 mM His, 140 mM NaCl, pH 6.0, and the samples stressed at 37° C. in PBS, pH 7.4, all at a concentration of 1.0 mg/ml. After the stress period (14 days) samples in PBS were dialyzed back to 20 mM His, 140 mM NaCl, pH 6.0 for further analysis.
(§4) All SPR experiments were performed on a Biacore T200 instrument (GE Healthcare) at 25° C. with HBS-P+ (10 mM HEPES, 150 mM NaCl pH 7.4, 0.05% Surfactant P20) as running and dilution buffer. Biotinylated human CD3ε/δ (see Example 3, SEQ ID NOs 41 and 42) as well as biotinylated anti-huIgG (Capture Select, Thermo Scientific, #7103262100) were immobilized on a Series S Sensor Chip SA (GE Healthcare, #29104992), resulting in surface densities of at least 1000 resonance units (RU). Anti-CD3 antibodies with a concentration of 2 μg/ml were injected for 30 s at a flow rate of 5 μl/min, and dissociation was monitored for 120 s. The surface was regenerated by injecting 10 mM glycine pH 1.5 for 60 s. Bulk refractive index differences were corrected by subtracting blank injections and by subtracting the response obtained from a blank control flow cell. For evaluation, the binding response 5 seconds after injection end was taken. To normalize the binding signal, the CD3 binding was divided by the anti-huIgG response (the signal (RU) obtained upon capture of the CD3 antibody on the immobilized anti-huIgG antibody). The relative binding activity was calculated by referencing each temperature stressed sample to the corresponding, non-stressed sample.

[11] = biological target: T3, Human CD3ε stalk-Fc(knob)-Avi/CD3δ …; experiment: SPR, TCB format, monovalent binding
Experimental: The experimental setup is schematically depicted in FIG. 3.
The dissociation was monitored for 800 s.
Kinetic constants were derived using the Biacore T200 Evaluation Software (GE Healthcare Life Sciences), to fit rate equations for 1:1 Langmuir binding by numerical integration. The half-life (t_{1/2}) of the interaction was calculated using the formula t_{1/2}=ln 2/koff.

[12] = biological target: T3, Human CD3ε stalk-Fc(knob)-Avi/CD3δ …; experiment: SPR, biotinylated human CD3ε/δ on SA chip, TCB at 2 µg/ml; response normalised to anti-huIgG capture and referenced to the unstressed sample; after 2 weeks at pH 6.0/40 °C
Experimental: as §3, §4

T2 sequence (VH, as listed by the source, chain 1 of 2): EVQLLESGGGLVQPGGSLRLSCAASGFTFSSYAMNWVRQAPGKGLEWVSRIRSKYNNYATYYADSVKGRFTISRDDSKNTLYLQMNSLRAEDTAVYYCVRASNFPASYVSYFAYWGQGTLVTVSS
T2 sequence (VL, as listed by the source, chain 2 of 2): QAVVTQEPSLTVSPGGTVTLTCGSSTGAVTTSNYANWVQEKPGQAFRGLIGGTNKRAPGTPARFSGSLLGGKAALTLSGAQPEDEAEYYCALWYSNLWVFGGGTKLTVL

B1: Humanized variant H1L2 of anti-idiotypic antibody 4.24.72 (IgG) (antibody, V domains shown)
VH: QVQLVQSGSELKKPGASVKVSCKASGYTVTDYSMNWVRQAPGQGLEWMGWINTETGEPRYTDDFKGRFVFSLDTSVSTAYLQISSLKAEDTAVYYCAREGDYDVFDYWGQGTLVTVSS
VL: DIVMTQSPDSLAVSLGERATINCKSSKSVSTSSYSYMHWYQQKPGQPPKLLIKYVSYLESGVPDRFSGSGSGTDFTLTISSLQAEDVAVYYCQHSREFPYTFGQGTKLEIK
notes: Produced and purified as IgG; also called Mask humanization variant H1L2
t1/2 diss (FOLR1 CD3 TCB P035.093 [1]): 396 s
Rel. active concentration [%] [2]: 97%
Kd (FOLR1 CD3 TCB P035.093 [3]): 1.2 nM
Rel. active concentration [%] [4]: 94%

B2: Humanized variant H1L1 of anti-idiotypic antibody 4.24.72 (IgG) (antibody, V domains shown)
VH: QVQLVQSGSELKKPGASVKVSCKASGYTVTDYSMNWVRQAPGQGLEWMGWINTETGEPRYTDDFKGRFVFSLDTSVSTAYLQISSLKAEDTAVYYCAREGDYDVFDYWGQGTLVTVSS
VL: DIVMTQSPDSLAVSLGERATINCRASKSVSTSSYSYMHWYQQKPGQPPKLLIKYVSYLESGVPDRFSGSGSGTDFTLTISSLQAEDVAVYYCQHSREFPYTFGQGTKLEIK
notes: Produced and purified as IgG; also called Mask humanization variant H1L1
Rel. active concentration [%] [2]: 99%
Rel. active concentration [%] [4]: 93%
t1/2 diss (FOLR1 CD3 TCB P035.093 [5]): 371 s
Kd (FOLR1 CD3 TCB P035.093 [6]): 1.8 nM

B3: Humanized variant H2L2 of anti-idiotypic antibody 4.24.72 (IgG) (antibody, V domains shown)
VH: QVQLVQSGSELKKPGASVKVSCKASGYTVTDYSMNWVRQAPGQGLEWMGWINTETGEPRYTDDFTGRFVFSLDTSVSTAYLQISSLKAEDTAVYYCAREGDYDVFDYWGQGTLVTVSS
VL: DIVMTQSPDSLAVSLGERATINCKSSKSVSTSSYSYMHWYQQKPGQPPKLLIKYVSYLESGVPDRFSGSGSGTDFTLTISSLQAEDVAVYYCQHSREFPYTFGQGTKLEIK
notes: Produced and purified as IgG; also called Mask humanization variant H2L2
Rel. active concentration [%] [2]: 98%
Kd (FOLR1 CD3 TCB P035.093 [7]): 1.8 nM
t1/2 diss (FOLR1 CD3 TCB P035.093 [8]): 372 s
Rel. active concentration [%] [4]: 93%

B4: Humanized variant H3L2 of anti-idiotypic antibody 4.24.72 (IgG) (antibody, V domains shown)
VH: QVQLVQSGSELKKPGASVKVSCKASGYTVTDYSMNWVRQAPGQGLEWMGWINTETGEPRYTQGFKGRFVFSLDTSVSTAYLQISSLKAEDTAVYYCAREGDYDVFDYWGQGTLVTVSS
VL: DIVMTQSPDSLAVSLGERATINCKSSKSVSTSSYSYMHWYQQKPGQPPKLLIKYVSYLESGVPDRFSGSGSGTDFTLTISSLQAEDVAVYYCQHSREFPYTFGQGTKLEIK
notes: Produced and purified as IgG; also called Mask humanization variant H3L2
t1/2 diss (FOLR1 CD3 TCB P035.093 [9]): 460 s
Rel. active concentration [%] [2]: 97%
Kd (FOLR1 CD3 TCB P035.093 [3]): 1.1 nM
Rel. active concentration [%] [4]: 94%

B5: TYRP1 TCB containing optimized anti-CD3 antibody clone P033.078 (bispecific antibody, human IgG1, kappa, L234A L235A)
heavy 1: not shown
heavy 2: QVQLVQSGAEVKKPGASVKVSCKASGFNIKDYFLHWVRQAPGQGLEWMGWINPDNGNTVYAQKFQGRVTMTADTSTSTVYMELSSLRSEDTAVYYCTRRDYTYEKAALDYWGQGTLVTVSSASTKGPSVFPLAPSSKSTSGGTAALGCLVEDYFPEPVTVSWNSGALTSGVHTFPAVLQSSGLYSLSSVVTVPSSSLGTQTYICNVNHKPSNTKVDEKVEPKSCDKTHTCPPCPAPEAAGGPSVFLFPPKPKDTLMISRTPEVTCVVVDVSHEDPEVKFNWYVDGVEVHNAKTKPREEQYNSTYRVVSVLTVLHQDWLNGKEYKCKVSNKALGAPIEKTISKAKGQPREPQVCTLPPSRDELTKNQVSLSCAVKGFYPSDIAVEWESNGQPENNYKTTPPVLDSDGSFFLVSKLTVDKSRWQQGNVFSCSVMHEALHNHYTQKSLSLSP
light 1: DIQMTQSPSSLSASVGDRVTITCRASGNIYNYLAWYQQKPGKVPKLLIYDAKTLADGVPSRFSGSGSGTDFTLTISSLQPEDVATYYCQHFWSLPFTFGQGTKLEIKRTVAAPSVFIFPPSDRKLKSGTASVVCLLNNFYPREAKVQWKVDNALQSGNSQESVTEQDSKDSTYSLSSTLTLSKADYEKHKVYACEVTHQGLSSPVTKSFNRGEC
light 2: EVQLLESGGGLVQPGGSLRLSCAASGFTFESYAMNWVRQAPGKGLEWVSRIRSKYNEYATYYADSVKGRFTISRDDSKNTLYLQMNSLRAEDTAVYYCVRASNFPSSFVSYFGYWGQGTLVTVSSASVAAPSVFIFPPSDEQLKSGTASVVCLLNNFYPREAKVQWKVDNALQSGNSQESVTEQDSKDSTYSLSSTLTLSKADYEKHKVYACEVTHQGLSSPVTKSFNRGEC
notes: 2+1 IgG CrossFab, inverted, with charge modifications; knob-into-hole, P329G L234A L235A; also called CD3opt (P033.078); P033.078 in TCB format
binding activity [%] [10]: 99%
fold of binding half-life over CD3orig [11]: ≤ 6 fold
binding activity [%] [12]: 99%

Source: US20230287145A1 (Hoffmann-La Roche, published 2023)
